# Laboratory results published in paper PMC10134273 (Cancer Medicine, 2023).
# “And” between values parts separate entries of the source, which are not always exact repeats. Identical values can stand only once. Like-named read-outs stand apart in the source and are kept apart here.
# Protocol: Secondary endpoints included PK parameters (e.g., maximum observed concentration [C max] and area under the concentration‐time curve [AUC]). Secondary endpoints included objective response rate (ORR), disease control rate (DCR), and duration of response (DOR) as assessed by investigator per RECIST v1.1. Tumor responses were assessed according to RECIST v1.1; computerized tomography scanning or magnetic resonance imaging was performed every 6 weeks in the first 48 weeks, and every 12 weeks thereafter. Secondary endpoints also included safety and tolerability (adverse events [AEs] as defined by the National Cancer Institute‐Common Terminology Criteria for Adverse Events CTCAE v5.0) and exploratory biomarkers (total bile acids, 7‐α‐hydroxy‐4‐cholesten‐3‐one [C4] and circulating FGF19). Safety follow‐up visit was performed within 30 days (±5 days) and 90 days (±7 days) after the last dose of the study treatment.
# All patients who received at least one dose of the study treatment in the Phase 1 part of the study were included in the safety and efficacy analyses. Dose escalation and MTD assessment were primarily based on DLTs which occurred within the 28‐day observation period. Descriptive statistics were used for demographics, safety, and efficacy data. The number of patients who experienced DLTs (within and outside of the 28‐day DLT assessment period) was tabulated for each dose level. The sample size of patients required for dose escalation were determined based on the ‘3+3’ design and DLTs observed as the trial progressed.
# [1] = EVER4010001 40 mg BID group (N=3)
# [2] = EVER4010001 60 mg BID group (N=3)
# [3] = EVER4010001 80 mg BID group (N=6)
# [4] = EVER4010001 100 mg BID group (N=7)
substance,measurement,setting,value
pembrolizumab: humanized monoclonal immunoglobulin G4 kappa anti-PD-1 antibody [reference compound],SAEs related to EVER4010001 or pembrolizumab,2 patients with SAEs (40 and 60 mg),none
same,Any pembrolizumab related TEAEs,"Any Grade, N=19",18 (94.7%) n (%) and 18 (94.7) n (%)
same,pembrolizumab related TEAEs: Abdominal pain,"Any Grade, N=19",2 (10.5) n (%)
same,pembrolizumab related TEAEs: Anemia,"Any Grade, N=19",4 (21.1) n (%)
same,pembrolizumab related TEAEs: Aspartate aminotransferase increase,"Any Grade, N=19",10 [52.6%] n (%) and 10 (52.6) n (%)
same,pembrolizumab related TEAEs: Blood alkaline phosphatase increased,"Any Grade, N=19",4 (21.1) n (%)
same,pembrolizumab related TEAEs: Blood and lymphatic system disorders,"Any Grade, N=19",4 (21.1) n (%)
same,pembrolizumab related TEAEs: Blood bilirubin increased,"Any Grade, N=19",4 (21.1) n (%)
same,pembrolizumab related TEAEs: Diarrhea,"Any Grade, N=19",11 [57.9%] n (%) and 11 (57.9) n (%)
same,pembrolizumab related TEAEs: Endocrine disorders,"Any Grade, N=19",3 (15.8) n (%)
same,pembrolizumab related TEAEs: Gamma-glutamyl transferase increased,"Any Grade, N=19",2 (10.5) n (%)
same,pembrolizumab related TEAEs: Gastrointestinal disorders,"Any Grade, N=19",11 (57.9) n (%)
same,pembrolizumab related TEAEs: Hyperphosphatemia,"Any Grade, N=19",3 (15.8) n (%)
same,pembrolizumab related TEAEs: Hypoalbuminemia,"Any Grade, N=19",3 (15.8) n (%)
same,pembrolizumab related TEAEs: Hypothyroidism,"Any Grade, N=19",3 (15.8) n (%)
same,pembrolizumab related TEAEs: Investigations,"Any Grade, N=19",14 (73.7) n (%)
same,pembrolizumab related TEAEs: Metabolism and nutrition disorders,"Any Grade, N=19",6 (31.6) n (%)
same,pembrolizumab related TEAEs: Proteinuria,"Any Grade, N=19",4 (21.1) n (%)
same,pembrolizumab related TEAEs: Renal and urinary disorder,"Any Grade, N=19",4 (21.1) n (%)
same,pembrolizumab related TEAEs: Thyroiditis,"Any Grade, N=19",2 (10.5) n (%)
same,TEAEs resulting in temporary interruption of pembrolizumab,[1],1 (33.3) n (%)
same,Temporary interruption of pembrolizumab: Blood bilirubin increased,[1],0 n (%)
same,Temporary interruption of pembrolizumab: Endocrine disorders,[1],1 (33.3) n (%)
same,Temporary interruption of pembrolizumab: Investigations,[1],0 n (%)
same,Temporary interruption of pembrolizumab: Thyroiditis,[1],1 (33.3) n (%)
same,TEAEs resulting in temporary interruption of pembrolizumab,[2],0 n (%)
same,Temporary interruption of pembrolizumab: Blood bilirubin increased,[2],0 n (%)
same,Temporary interruption of pembrolizumab: Endocrine disorders,[2],0 n (%)
same,Temporary interruption of pembrolizumab: Investigations,[2],0 n (%)
same,Temporary interruption of pembrolizumab: Thyroiditis,[2],0 n (%)
same,TEAEs resulting in temporary interruption of pembrolizumab,[3],1 (16.7) n (%)
same,Temporary interruption of pembrolizumab: Blood bilirubin increased,[3],1 (16.7) n (%)
same,Temporary interruption of pembrolizumab: Endocrine disorders,[3],0 n (%)
same,Temporary interruption of pembrolizumab: Investigations,[3],1 (16.7) n (%)
same,Temporary interruption of pembrolizumab: Thyroiditis,[3],0 n (%)
same,TEAEs resulting in temporary interruption of pembrolizumab,[4],1 (14.3) n (%)
same,Temporary interruption of pembrolizumab: Blood bilirubin increased,[4],0 n (%)
same,Temporary interruption of pembrolizumab: Endocrine disorders,[4],0 n (%)
same,Temporary interruption of pembrolizumab: Investigations,[4],1 (14.3) n (%)
same,Temporary interruption of pembrolizumab: Thyroiditis,[4],0 n (%)
same,pembrolizumab related TEAEs: Abdominal pain,"Grade ≥3, N=19",0 n (%)
same,pembrolizumab related TEAEs: Anemia,"Grade ≥3, N=19",0 n (%)
same,pembrolizumab related TEAEs: Aspartate aminotransferase increase,"Grade ≥3, N=19",2 (10.5) n (%)
same,pembrolizumab related TEAEs: Blood alkaline phosphatase increased,"Grade ≥3, N=19",0 n (%)
same,pembrolizumab related TEAEs: Blood and lymphatic system disorders,"Grade ≥3, N=19",0 n (%)
same,pembrolizumab related TEAEs: Blood bilirubin increased,"Grade ≥3, N=19",0 n (%)
same,pembrolizumab related TEAEs: Diarrhea,"Grade ≥3, N=19",1 (5.3) n (%)
same,pembrolizumab related TEAEs: Endocrine disorders,"Grade ≥3, N=19",0 n (%)
same,pembrolizumab related TEAEs: Gamma-glutamyl transferase increased,"Grade ≥3, N=19",0 n (%)
same,pembrolizumab related TEAEs: Gastrointestinal disorders,"Grade ≥3, N=19",1 (5.3) n (%)
same,pembrolizumab related TEAEs: Hyperphosphatemia,"Grade ≥3, N=19",0 n (%)
same,pembrolizumab related TEAEs: Hypoalbuminemia,"Grade ≥3, N=19",0 n (%)
same,pembrolizumab related TEAEs: Hypothyroidism,"Grade ≥3, N=19",0 n (%)
same,pembrolizumab related TEAEs: Investigations,"Grade ≥3, N=19",2 (10.5) n (%)
same,pembrolizumab related TEAEs: Metabolism and nutrition disorders,"Grade ≥3, N=19",0 n (%)
same,pembrolizumab related TEAEs: Proteinuria,"Grade ≥3, N=19",0 n (%)
same,pembrolizumab related TEAEs: Renal and urinary disorder,"Grade ≥3, N=19",0 n (%)
same,pembrolizumab related TEAEs: Thyroiditis,"Grade ≥3, N=19",0 n (%)
same,TEAEs resulting in temporary interruption of pembrolizumab,Total (N=19),3 [15.8%] n (%) and 3 (15.8) n (%)
same,Temporary interruption of pembrolizumab: Blood bilirubin increased,Total (N=19),1 (5.3%) n (%) and 1 (5.3) n (%)
same,Temporary interruption of pembrolizumab: Endocrine disorders,Total (N=19),1 (5.3) n (%)
same,Temporary interruption of pembrolizumab: Investigations,Total (N=19),2 (10.5) n (%)
same,Temporary interruption of pembrolizumab: Thyroiditis,Total (N=19),1 (5.3%) n (%) and 1 (5.3) n (%)
